Reference: US7338658

Assays:
[1] = target: Fc receptors on human cells (γIFN-induced monocytes, γIFN-induced THP-1 cells, ADCC effector cells); experiment: cell-based or functional assay
[2] = target: baboon CD4 on lymphocytes (baboon); experiment: flow cytometry on lymphocytes of different species
[3] = target: human CD4 on cells (human) (UniProt P01730); experiment: cell-based or functional assay

Substance | ADCC, concentration at maximal cytotoxicity [1] [µg/mL] | ADCC, total specific lysis of SupT1 cells [1] [%] | ED50 of cell-cell adhesion (γIFN activated fresh monocytes and CD4+ SupT1 T cells) [1] [µg/mL] | fold lower reactivity than human [2] [fold] | IL-2 Production (IC50), three way MLR [3] [µg/mL] | Proliferation (IC50), three way MLR [3] [µg/mL]
CE9.1 monkey/human chimeric anti-CD4 monoclonal antibody (ATCC No. 69030 construct) (from UniProt P01857 1-330) | 6 | 50 | 0.02 | 10 |  | 
CE9γ4λK (antibody) |  |  |  |  | 0.02 | 0.02
